The chains are these.
B1: Ct850 (natural protein)
chain: MGFGTVRGKGKAVKSFFLRPLQNLEVGLFSLPIVLLLGEIGCVSSISSVSLVAVLSIVGVFVALVSFFRSWGYGLSVVGAIFFGLALCNNFPVSVFWGGLLTVSFIISYGILLLSVSLVEGHIKEKAVSLSELTASHNSLQDSYNREVQERKEKELLAQSKITALEQELSVSHEQLQEVSRKYTHASEDLQILIDQRDSWLKDYMTLHQEYVRVVAGDEENVIFPWKVFQGNSEKDSGYQQRVQDAEHKIAHLEKLCEEENSGKRYAEECLDKALADLLESTRLREILEKEIFQKDEEIASLKQEIAAEKLLSSSVSDDRAAYKGKYLQLREQFTVKDSFLKKARRERFLAQEQLLVLKRAKEEEASNLSTTDSFSIIQNLLLQIEALEEEVTYLEELVLHNQNR
notes: Ct850, putative inclusion membrane protein of C. trachomatis; source: bacterial two-hybrid (BACTH) fusion, co-expressed in E. coli DHT1; not shown: T25 (as bait) or T18 (as prey) fragment of B. pertussis adenylate cyclase, N-terminal, kept
B2: Ct222 (natural protein)
chain: MRCCCVRTNYEEVRSSSTGDQVVSAVKERKCDSSLCRKIASVAFTLIGALLLGIGMVLSFALLGSSAGLIGVGVILSALGAVCLSLGLCKLFLRMKRVSLDKAEQKMLEDQVELLRQENQELKALVYSN
notes: Ct222, putative inclusion membrane protein of C. trachomatis; also called Ct222 FL; source: bacterial two-hybrid (BACTH) fusion, co-expressed in E. coli DHT1; not shown: T25 (as bait) or T18 (as prey) fragment of B. pertussis adenylate cyclase, N-terminal, kept

Assay in all cases: two-hybrid
The series “Ct222” addresses B2. To be noted: partners not purified.
In the series “Ct850” the target is B1. To be noted: partners not purified.
The series “two-hybrid” deals with the molecule itself.

B1: the β-galactosidase activity with Ct222 was 151 relative units (RU). With B2, the β-galactosidase activity was 92 relative units (RU) with Ct850 and 317 relative units (RU) in “two-hybrid”.

The values are drawn from paper PMC4324299, “Characterization of interactions between inclusion membrane proteins from Chlamydia trachomatis” (Frontiers in Cellular and Infection Microbiology, 2015).
